The results in this text go back to PMC8293591, “Vibrio vulnificus induces the death of a major bacterial species in the mouse gut via cyclo-Phe-Pro” (Microbiome, 2021).

Test [1] has as its target T1, ObgE (rObgE) (Phocaeicola vulgatus, UniProt A6L100).
T1 construct: gene obg; 45 kDa; nucleotide-free (alkaline phosphatase, gel filtration)
T1 sequence (A6L100 1-394): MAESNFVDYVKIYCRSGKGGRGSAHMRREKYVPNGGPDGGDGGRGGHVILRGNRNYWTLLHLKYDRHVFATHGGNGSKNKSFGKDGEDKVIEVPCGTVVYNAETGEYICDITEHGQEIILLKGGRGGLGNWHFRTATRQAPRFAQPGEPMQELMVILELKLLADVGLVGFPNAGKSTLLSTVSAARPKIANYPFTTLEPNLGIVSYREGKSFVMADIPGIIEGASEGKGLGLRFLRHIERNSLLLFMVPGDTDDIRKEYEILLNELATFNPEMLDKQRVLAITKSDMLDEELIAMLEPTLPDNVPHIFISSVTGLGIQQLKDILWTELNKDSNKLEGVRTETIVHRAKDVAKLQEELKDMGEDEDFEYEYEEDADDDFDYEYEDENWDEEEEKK
The experiment in a line: isothermal titration calorimetry. It is filed as binding. (In general: ITC needs no label: the signal is the heat of the interaction.)

The target in test [2] is recombinant ObgE of Bacteroides vulgatus MGM001, nucleotide-free (Bacteroides vulgatus MGM001). The experiment in a line: ITC; MicroCal iTC200; nucleotide-free rObgE (40 μM) titrated with 400 μM cyclic dipeptide at 25 °C in 20 mM HEPES (pH 7.5), 150 mM NaCl, 5 mM MgCl2, 1 mM β-mercaptoethanol; single binding site model.

The molecule `O=C1N[C@@H](Cc2ccccc2)C(=O)N2CCC[C@@H]12` [cFP] gave a Kd in test [1] of 1800 ± 350 nM.
With cyclo-(phenylalanine-proline) (peptide), in test [2], the Kd was determined as 1800 nM and the stoichiometry N amounted to 0.78.

The term Kd denotes the equilibrium constant for the complex coming apart. As a reminder, the stoichiometry N is a count of units in the complex or per binding partner.
